Measurements: patent publication US20250154279A1 (BEIGENE, published 2025)
Positions count from the first letter of the chain named. Names may count otherwise.

What was measured:
huGPC3-His = biological target: T1, huGPC3-His (human, UniProt P51654 25-559, limits assumed); assay: SPR (BIAcore T-200), BE-774 captured by anti-kappa antibody, huGPC3-His flowed over
T1 construct: not shown: His tag
Method: (§1) Briefly, anti-kappa antibody was immobilized on an activated CM5 biosensor chip (Cat.: BR100839, GE Life Sciences). […] Then a serial dilution (6.0 nM to 2150 nM) of human CD137 ECD-mIgG2a or huGPC3-His were flowed over the chip surface and changes in surface plasmon resonance signals were analyzed to calculate the association rates (kₒₙ) and dissociation rates (koff) by using the one-to-one Langmuir binding model (BIA Evaluation Software, GE Life Sciences). The equilibrium dissociation constant (KD) was calculated as the ratio koff/kₒₙ. […] Goat anti-Human IgG was used as secondary antibody to detect antibody binding to the cell surface. EC₅₀ values for dose-dependent binding to human native CD137 were determined by fitting the dose-response data to the four-parameter logistic model with GraphPad Prism™. […] Goat anti-Human IgG was used as secondary antibody to detect antibody binding to the cell surface. EC₅₀ values for dose-dependent binding to human native GPC3 were determined by fitting the dose-response data to the four-parameter logistic model with GraphPad Prism™.

human CD137 ECD-mIgG2a = biological target: T2, human CD137 ECD-mIgG2a (human); assay: SPR (BIAcore T-200), BE-774 captured by anti-kappa antibody, human CD137 ECD-mIgG2a flowed over
T2 construct: also called huCD137
Method: as §1

[1] = biological target: T3, human GPC3 expressed on HepG2 cells (human, UniProt P51654 25-554); assay: flow cytometry on HepG2 cells
T3 construct: also called native huGPC3; native GPC3
T3 sequence (P51654 25-554 limits assumed): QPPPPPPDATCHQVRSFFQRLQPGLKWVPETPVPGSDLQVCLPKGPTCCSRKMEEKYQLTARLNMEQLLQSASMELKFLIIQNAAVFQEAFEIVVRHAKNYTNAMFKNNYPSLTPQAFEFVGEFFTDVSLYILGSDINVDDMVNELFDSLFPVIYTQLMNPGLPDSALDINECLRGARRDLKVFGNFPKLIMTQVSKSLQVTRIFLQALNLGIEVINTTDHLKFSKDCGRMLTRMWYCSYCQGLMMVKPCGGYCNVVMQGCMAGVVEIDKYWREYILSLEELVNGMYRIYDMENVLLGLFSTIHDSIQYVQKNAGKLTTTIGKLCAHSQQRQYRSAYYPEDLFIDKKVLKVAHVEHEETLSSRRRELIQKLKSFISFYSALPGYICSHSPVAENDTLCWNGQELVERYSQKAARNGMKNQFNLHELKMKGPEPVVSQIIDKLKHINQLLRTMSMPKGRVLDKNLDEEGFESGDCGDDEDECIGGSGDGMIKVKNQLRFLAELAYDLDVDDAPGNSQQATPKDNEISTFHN
Method: as §1

[2] = biological target: T4, human CD137 over-expressed on HuT78 cells (HuT78/CD137) (human, UniProt Q07011 24-255); assay: flow cytometry on live Hut78/huCD137 cells
T4 construct: also called Hut78/huCD137; native CD137
T4 sequence (Q07011 24-255 limits assumed): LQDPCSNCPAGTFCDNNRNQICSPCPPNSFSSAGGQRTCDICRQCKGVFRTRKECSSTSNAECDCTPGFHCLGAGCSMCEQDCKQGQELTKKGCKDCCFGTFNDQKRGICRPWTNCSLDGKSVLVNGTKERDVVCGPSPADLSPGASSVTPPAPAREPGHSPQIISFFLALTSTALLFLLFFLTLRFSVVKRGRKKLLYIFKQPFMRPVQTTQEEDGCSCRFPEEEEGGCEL
Method: as §1

[3] = biological target: T5, human GPC3 (Cat.: 10088-H08H, Sino Biological, CHINA) (human, UniProt P51654 25-559); assay: SPR
T5 construct: Bought protein
T5 sequence (P51654 25-559 limits assumed): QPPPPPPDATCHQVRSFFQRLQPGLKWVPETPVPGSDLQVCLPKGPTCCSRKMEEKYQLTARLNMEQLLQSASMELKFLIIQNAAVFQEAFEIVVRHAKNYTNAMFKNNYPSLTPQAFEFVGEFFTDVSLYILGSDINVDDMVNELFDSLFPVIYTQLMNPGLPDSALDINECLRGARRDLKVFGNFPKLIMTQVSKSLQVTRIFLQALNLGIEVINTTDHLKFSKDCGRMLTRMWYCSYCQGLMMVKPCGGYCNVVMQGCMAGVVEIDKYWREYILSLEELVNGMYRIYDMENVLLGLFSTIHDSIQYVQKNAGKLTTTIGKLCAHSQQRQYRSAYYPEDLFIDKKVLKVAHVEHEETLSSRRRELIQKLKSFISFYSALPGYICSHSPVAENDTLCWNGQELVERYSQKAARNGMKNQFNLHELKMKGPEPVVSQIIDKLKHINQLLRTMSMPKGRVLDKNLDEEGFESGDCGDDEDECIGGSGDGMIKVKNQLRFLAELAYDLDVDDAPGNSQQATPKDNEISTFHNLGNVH
Method: (§2) The binding kinetics of the antibodies were measured using surface plasmon resonance (SPR). SPR was used to measure the on-rate constant (Kₐ) and off-rate constant (Kd) of the antibodies to recombinant proteins of CD137 and GPC3 and then determined the affinity constant (KD).

[4] = biological target: T6, human CD137 (Cat.: 41B-H5256, Acrobio, CHINA) (human, UniProt Q07011 24-186); assay: SPR
T6 construct: Bought protein
Method: as §2

[5] = biological target: T7, cynomolgus monkey GPC3 (Cat.: GP3-C5225, Acrobio, CHINA) (cynomolgus monkey, UniProt A0A2K5VK50 24-558); assay: SPR
T7 construct: also called Cyno GPC3
Method: as §2

[6] = biological target: T8, cynomolgus monkey CD137 ECD (cynomolgus monkey); assay: SPR
T8 construct: also called Cyno CD137; Cyno CD137 ECD
T8 chain: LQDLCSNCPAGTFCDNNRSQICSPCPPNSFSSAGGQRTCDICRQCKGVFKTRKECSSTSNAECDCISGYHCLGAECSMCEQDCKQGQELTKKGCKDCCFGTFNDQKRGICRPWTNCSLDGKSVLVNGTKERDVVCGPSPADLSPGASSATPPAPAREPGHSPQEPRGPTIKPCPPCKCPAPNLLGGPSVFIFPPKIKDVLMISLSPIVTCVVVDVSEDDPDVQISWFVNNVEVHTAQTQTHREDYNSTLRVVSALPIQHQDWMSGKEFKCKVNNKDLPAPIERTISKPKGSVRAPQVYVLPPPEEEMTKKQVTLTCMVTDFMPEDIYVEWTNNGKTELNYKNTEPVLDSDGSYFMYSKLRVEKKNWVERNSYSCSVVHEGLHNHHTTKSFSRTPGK
Method: as §2

[7] = biological target: T4, human CD137 over-expressed on HuT78 …; assay: FACS on HuT78/CD137 cells
[8] = biological target: T4, human CD137 over-expressed on HuT78 …; assay: flow cytometry on HuT78/CD137 cells, detection anti-hFc 647, no CD137L added
[9] = biological target: T3, human GPC3 expressed on HepG2 cells; assay: FACS on HepG2 cells
[10] = biological target: T9, human CD137 (recombinant antigen of the ELISA of Example 2 and the SPR of Example 3; construct not stated) (human, UniProt Q07011 24-186, limits assumed); assay: SPR
T9 construct: also called huCD137

[11] = biological target: T9, human CD137 (recombinant antigen of the …); assay: SPR, antibody captured on anti-human Fc surface, Test 2
Source text: (§3) For affinity determination, antibodies were captured by anti-human Fe surface, and used in the affinity—assay based on surface plasmon resonance (SPR) technology.

[12] = biological target: T9, human CD137 (recombinant antigen of the …); assay: SPR, antibody captured on anti-human Fc surface, Test 1
Source text: as §3

[13] = biological target: T4, human CD137 over-expressed on HuT78 …; assay: flow cytometry on live HuT78/CD137 cells
Method: To evaluate the binding activity of anti-CD137 antibody to bind native CD137 on live cells, HuT78 cells were engineered to over-express human CD137. Live HuT78/CD137 cells were seeded in a 96-well plate, and were incubated with a series of dilutions of anti-CD137 antibody. Goat anti-Human IgG was used as secondary antibody to detect antibody binding to the cell surface. EC₅₀ values for dose-dependent binding to human native CD137 were determined by fitting the dose-response data to the four-parameter logistic model with GraphPad Prism™. The humanized VHHs retained sub-nanomolar binding affinity to native CD137.

[14] = biological target: T9, human CD137 (recombinant antigen of the …); assay: SPR; remark: listed apart in the source

T1 sequence (P51654 25-559 limits assumed): as the sequence (P51654 25-559 limits assumed) above

B1: BE-774 (anti-GPC3 x CD137 bispecific antibody, GPC3 antibody + VHH BGA-9612, IgG1mf Fc-YTE) (bispecific antibody)
heavy: QVQLVQSGAEVKKPGASVKVSCKASGYTFTDYEMHWVRQAPGQGLEWMGALDPKTGDTAYSQKFKGRVTLTADKSTSTAYMELSSLTSEDTAVYYCTRFYSYTYWGQGTLVTVSSASTKGPSVFPLAPSSKSTSGGTAALGCLVKDYFPEPVTVSWNSGALTSGVHTFPAVLQSSGLYSLSSVVTVPSSSLGTQTYICNVNHKPSNTKVDKKVEPKSCDKTHTCPPCPAPPAAGPSVFLFPPKPKDTLYITREPEVTCVVVDVSHEDPEVKFNWYVDGVEVHNAKTKPREEQYNSTYRVVSVLTVLHQDWLNGKEYKCKVSNKALAAPIEKTISKAKGQPREPQVYTLPPSREEMTKNQVSLTCLVKGFYPSDIAVEWESNGQPENNYKTTPPVLDSDGSFFLYSKLTVDKSRWQQGNVFSCSVMHEALHNHYTQKSLSLSPGKGGGGSEVQLVESGGGTVQPGDSLRLSCAASGRTFDNYAVGWFRQAPGKERQYVGTYWSGYAHYGDFENNRFTISRDNAKNTVYLQMDNLKPEDTAVYYCAISLKYPMATVTPDYQGQGTQVTVSS
light: DVVMTQSPLSLPVTPGEPASISCRSSQSLVHSNRNTYLHWYLQKPGQSPQLLIYKVSNRFSGVPDRFSGSGSGTDFTLKISRVEAEDVGVYYCSQNTHVPPTFGQGTKLEIKRTVAAPSVFIFPPSDEQLKSGTASVVCLLNNFYPREAKVQWKVDNALQSGNSQESVTEQDSKDSTYSLSSTLTLSKADYEKHKVYACEVTHQGLSSPVTKSFNRGEC
Q: With B1 as the binder, how does the Kd (huGPC3-His) read?
A: 1.01 nM

Q: What about the koff (huGPC3-His) of the same binder?
A: 0.00022 s⁻¹

Q: And the kon (huGPC3-His)?
A: 218000 M⁻¹ s⁻¹

Q: What about the Kd (human CD137 ECD-mIgG2a) of the same binder?
A: 0.529 nM

Q: And the koff (human CD137 ECD-mIgG2a)?
A: 0.000425 s⁻¹

Q: And the kon (human CD137 ECD-mIgG2a)?
A: 804000 M⁻¹ s⁻¹

Q: What about the EC50 [1] of the same binder?
A: 0.9 nM

Q: And the EC50 [2]?
A: 0.7 nM

B2: BE-915 (anti-GPC3 x CD137 bispecific antibody, GPC3 antibody + VHH BGA-2524, IgG1mf Fc-YTE) (bispecific antibody)
heavy: B1 heavy with T460L, D465G, Q495E, D531N, K534R
light: B1 light
Q: With B2 as the binder, how does the Kd [3] read?
A: 2.4 nM

Q: What about the koff [3] of the same binder?
A: 0.00014 s⁻¹

Q: And the kon [3]?
A: 58000 M⁻¹ s⁻¹

Q: And the Kd [4]?
A: 3.6 nM

Q: And the koff [4]?
A: 0.00042 s⁻¹

Q: What about the kon [4] of the same binder?
A: 120000 M⁻¹ s⁻¹

Q: What about the Kd [5] of the same binder?
A: 0.53 nM

Q: And the koff [5]?
A: 0.00011 s⁻¹

Q: What about the kon [5] of the same binder?
A: 210000 M⁻¹ s⁻¹

Q: What about the Kd [6] of the same binder?
A: 4.4 nM

Q: And the koff [6]?
A: 0.00055 s⁻¹

Q: And the kon [6]?
A: 130000 M⁻¹ s⁻¹

Q: What about the EC50 [7] of the same binder?
A: 0.69 nM

Q: And the “EC50 (read off the curve)” value [8]?
A: ~0.1 µg/mL

Q: And the EC50 [9]?
A: 1.09 nM

B3: BGA-9612 (chimeric Fc-VHH, as compared with the humanized VHHs in Examples 3-4) (VHH)
chain: EPKSSDKTHTCPPCPAPPAAGPSVFLFPPKPKDTLMISRTPEVTCVVVDVSHEDPEVKFNWYVDGVEVHNAKTKPREEQYNSTYRVVSVLTVLHQDWLNGKEYKCKVSNKALAAPIEKTISKAKGQPREPQVYTLPPSREEMTKNQVSLTCLVKGFYPSDIAVEWESNGQPENNYKTTPPVLDSDGSFFLYSKLTVDKSRWQQGNVFSCSVMHEALHNHYTQKSLSLSPGKGGGGSQVQLVESGGGTVQPGDSLRLSCAASGRTFDNYAVGWFRQAPGKERQYVGTYWSGYAHYGDFENNRFTISRDNAKNTVYLQMDNLKPEDTAVYYCAISLKYPMATVTPDYQGQGTQVTVSS
Q: What does the source list for B3?
A: Kd [10]: 20.3 nM; koff [10]: 0.000419 s⁻¹; kon [10]: 20700 M⁻¹ s⁻¹; Kd [11]: 15.2 nM; koff [11]: 0.000754 s⁻¹; kon [11]: 49500 M⁻¹ s⁻¹; Kd [12]: 20.3 nM; koff [12]: 0.000419 s⁻¹; kon [12]: 20700 M⁻¹ s⁻¹; EC50 [13]: 0.85 nM

B4: BGA-3544 (humanized VHH, Fc-VHH format) (VHH)
chain: B3 chain with Q237E, T247L, D252G, Q282E, N299K, N300G, A309S, D318N, K321R
Q: Which results are given for B4?
A: Kd [11]: 17.6 nM; koff [11]: 0.000999 s⁻¹; kon [11]: 56900 M⁻¹ s⁻¹; EC50 [13]: 0.85 nM

B5: BGA-3726 (BGA-6582-Q46E) (VHH)
chain: EPKSSDKTHTCPPCPAPPAAGPSVFLFPPKPKDTLMISRTPEVTCVVVDVSHEDPEVKFNWYVDGVEVHNAKTKPREEQYNSTYRVVSVLTVLHQDWLNGKEYKCKVSNKALAAPIEKTISKAKGQPREPQVYTLPPSREEMTKNQVSLTCLVKGFYPSDIAVEWESNGQPENNYKTTPPVLDSDGSFFLYSKLTVDKSRWQQGNVFSCSVMHEALHNHYTQKSLSLSPGKGGGGSEVQLLESGGGLVQPGGSLRLSCAASGRTFDNYAVGWFRQAPGKEREYVGTYWSGYAHYGDFENNRFTISRDNSKNTVYLQMNSLRAEDTAVYYCAISLKYPMATVTPDYQGQGTLVTVSS
Q: What does the source list for B5?
A: Kd [14]: 14.3 nM; koff [14]: 0.000432 s⁻¹; kon [14]: 30200 M⁻¹ s⁻¹

B6: BGA-6582 (humanized VHH from BGA-9612, Fc-VHH format) (VHH)
chain: B5 chain with E282Q
Q: B6 was tested. Which Kd [10] did it give?
A: 27.7 nM

Q: And the koff [10]?
A: 0.000588 s⁻¹

Q: And the kon [10]?
A: 21200 M⁻¹ s⁻¹

Q: And the Kd [14]?
A: 13.6 nM

Q: What about the koff [14] of the same binder?
A: 0.000593 s⁻¹

Q: And the kon [14]?
A: 43500 M⁻¹ s⁻¹

Q: And the Kd [12]?
A: 27.7 nM

Q: What about the koff [12] of the same binder?
A: 0.000588 s⁻¹

Q: And the kon [12]?
A: 21200 M⁻¹ s⁻¹

B7: BGA-6582-E44G (VHH)
chain: B5 chain with E280G, E282Q
Q: B7 was tested. Which Kd [14] did it give?
A: 9.16 nM

Q: And the koff [14]?
A: 0.000242 s⁻¹

Q: What about the kon [14] of the same binder?
A: 26400 M⁻¹ s⁻¹

B8: BGA-6582-F37V (VHH)
chain: B5 chain with F273V, E282Q
Q: Does B8 bind [14]?
A: no binding

B9: BGA-6582-G49S (VHH)
chain: B5 chain with E282Q, G285S
Q: Does B9 bind [14]?
A: no binding

B10: BGA-6582-I94K (VHH)
chain: B5 chain with E282Q, I332K
Q: Does B10 bind [14]?
A: no binding

B11: BGA-6582-R45L (VHH)
chain: B5 chain with R281L, E282Q
Q: What does the source list for B11?
A: Kd [14]: 14.8 nM; koff [14]: 0.000413 s⁻¹; kon [14]: 27800 M⁻¹ s⁻¹

B12: BGA-6582-V78L (VHH)
chain: B5 chain with E282Q, V313L
Q: B12 was tested. Which Kd [14] did it give?
A: 13.6 nM

Q: And the koff [14]?
A: 0.000593 s⁻¹

Q: And the kon [14]?
A: 43500 M⁻¹ s⁻¹

B13: BGA-6582-Y47W (VHH)
chain: B5 chain with E282Q, Y283W
Q: Does B13 bind [14]?
A: no binding

B14: BGA-7031 (humanized VHH, Fc-VHH format) (VHH)
chain: B5 chain with L241V, S319N, A322P, L351Q
Q: For B14, which Kd [11] is on record?
A: 11.7 nM

Q: What about the koff [11] of the same binder?
A: 0.000719 s⁻¹

Q: What about the kon [11] of the same binder?
A: 61600 M⁻¹ s⁻¹

Q: What about the EC50 [13] of the same binder?
A: 0.88 nM
